The term Kd denotes the constant that tells how readily two partners part at equilibrium. One may read the EC50 as the concentration giving half of the maximal effect. Usually EC50 (read off the curve) stands for the concentration at which the effect is half-maximal. A low value points to an effect from little substance.

Assay [1] deals with T1, extracellular domain of SIRPα v1-DLN (e.g. SIRPα1) (human, UniProt P78324 31-373).
T1 construct: also called hSIRPα - ECD (v1)
Kind of assay: SPR Biacore T200, antibody on Protein A chip, 1:1 Langmuir fit. For orientation: Surface plasmon resonance follows binding to a sensor surface in real time, without labels.

In assay [2] the target is T2, SIRPβ extracellular domain (human, UniProt O00241 30-371).
T2 construct: also called hSIRPβ - ECD
T2 chain: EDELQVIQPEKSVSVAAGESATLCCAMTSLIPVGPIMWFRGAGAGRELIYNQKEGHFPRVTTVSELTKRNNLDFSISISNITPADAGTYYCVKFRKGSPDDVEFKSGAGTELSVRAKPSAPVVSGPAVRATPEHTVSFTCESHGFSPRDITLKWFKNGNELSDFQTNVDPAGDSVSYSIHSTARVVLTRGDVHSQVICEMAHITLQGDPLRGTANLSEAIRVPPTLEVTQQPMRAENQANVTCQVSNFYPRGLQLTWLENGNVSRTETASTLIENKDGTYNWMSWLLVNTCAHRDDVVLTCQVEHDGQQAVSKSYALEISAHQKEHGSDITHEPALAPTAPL
The description is as above.

Assay [3] concerns the target T3, SIRPγ extracellular domain (human, UniProt Q9P1W8 29-360).
T3 construct: also called hSIRPγ - ECD
The description is as above.

In assay [4] the target is T4, mouse SIRPα on cells (mouse, UniProt P97797 32-513).
T4 construct: whole, on cells; also called mouse SIRPα-CHO-K1; Ms SIRPα-CHO-K1
T4 sequence (looked up): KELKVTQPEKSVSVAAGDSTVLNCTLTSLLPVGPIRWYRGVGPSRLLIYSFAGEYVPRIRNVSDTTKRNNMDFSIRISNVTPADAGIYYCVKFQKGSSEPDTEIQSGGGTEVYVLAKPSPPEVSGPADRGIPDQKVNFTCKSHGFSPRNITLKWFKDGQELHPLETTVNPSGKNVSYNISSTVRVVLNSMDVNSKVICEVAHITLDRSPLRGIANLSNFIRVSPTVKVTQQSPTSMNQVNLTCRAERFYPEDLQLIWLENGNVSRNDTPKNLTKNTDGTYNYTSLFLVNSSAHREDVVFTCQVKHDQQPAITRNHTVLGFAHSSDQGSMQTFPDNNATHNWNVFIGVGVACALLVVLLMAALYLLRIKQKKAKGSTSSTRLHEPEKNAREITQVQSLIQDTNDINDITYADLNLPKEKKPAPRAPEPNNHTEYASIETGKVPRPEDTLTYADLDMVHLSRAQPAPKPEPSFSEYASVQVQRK
Kind of assay: flow cytometry, C57/BL6 macrophages, anti-human Fc detection; C57/BL6 macrophages (whole cells), not SIRPα-CHO-K1.

The target in another assay is T5, FcγR1 (CD64) (human, UniProt P12314 16-374).
T5 construct: whole, on cells
The experiment in a line: cell binding, FcγR-engineered HEK293 cells.

The next assay addresses T6, FcγR2B (human, UniProt P31994 43-310).
T6 construct: whole, on cells
T6 sequence (looked up): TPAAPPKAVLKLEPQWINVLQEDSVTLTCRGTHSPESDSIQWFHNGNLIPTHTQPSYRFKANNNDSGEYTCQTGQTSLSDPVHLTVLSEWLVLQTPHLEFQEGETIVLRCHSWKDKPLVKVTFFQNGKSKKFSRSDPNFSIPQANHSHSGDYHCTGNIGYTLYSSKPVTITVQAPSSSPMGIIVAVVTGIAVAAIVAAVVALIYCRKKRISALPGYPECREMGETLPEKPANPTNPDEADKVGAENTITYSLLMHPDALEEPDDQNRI
The experiment in a line: cell binding, FcγR-engineered HEK293 cells.

For another assay, the target named is T7, FcγR3A (CD16aV158) (human, UniProt P08637 17-254).
T7 construct: whole, on cells
The experiment in a line: cell binding, FcγR-engineered HEK293 cells.

Assay [5] concerns the target T8, cynomolgus SIRPα on cells (cynomolgus, UniProt P78324 31-373 (human entry)).
T8 construct: also called cyno SIRPα-CHO; Cyno SIRPα-CHO-K1; not shown: Transmembrane and cytoplasmic region of cynomolgus SIRPα
T8 chain: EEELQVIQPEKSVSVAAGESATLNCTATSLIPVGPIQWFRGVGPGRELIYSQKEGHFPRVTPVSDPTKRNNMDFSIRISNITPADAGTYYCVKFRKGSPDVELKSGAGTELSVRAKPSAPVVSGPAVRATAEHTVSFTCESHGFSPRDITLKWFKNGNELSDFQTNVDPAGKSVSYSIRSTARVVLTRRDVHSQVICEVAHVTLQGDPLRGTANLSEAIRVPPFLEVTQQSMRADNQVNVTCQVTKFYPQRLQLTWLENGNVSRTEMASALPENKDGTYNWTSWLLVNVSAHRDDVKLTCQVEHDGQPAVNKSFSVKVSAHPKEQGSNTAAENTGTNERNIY
The experiment in a line: flow cytometry of cynomolgus whole blood, gated CD14+ cells, Donor 1. A general note: Flow cytometry measures light scatter and fluorescence of single cells or particles in a stream.

The target in assay [6] is T8, cynomolgus SIRPα on cells. Kind of assay: flow cytometry of cynomolgus whole blood, gated CD14+ cells, Donor 2.
The target of assay [7] is T8, cynomolgus SIRPα on cells. Kind of assay: flow cytometry, cyno whole blood, gated CD14+ population, PE-conjugated antibody, one of two donors.
Assay [8] addresses T4, mouse SIRPα on cells. Kind of assay: flow cytometry, C57BL/6-CD11b+ Cell Binding.
Assay [9] concerns the target T4, mouse SIRPα on cells. The experiment in a line: flow cytometry competition on C57/BL6 macrophages, competitor mCD47-hFc 6.7 nM, antibody at 0.5 nM or more.

Bounds are passed on as bounds.

T7 sequence (P08637 17-254 F176V): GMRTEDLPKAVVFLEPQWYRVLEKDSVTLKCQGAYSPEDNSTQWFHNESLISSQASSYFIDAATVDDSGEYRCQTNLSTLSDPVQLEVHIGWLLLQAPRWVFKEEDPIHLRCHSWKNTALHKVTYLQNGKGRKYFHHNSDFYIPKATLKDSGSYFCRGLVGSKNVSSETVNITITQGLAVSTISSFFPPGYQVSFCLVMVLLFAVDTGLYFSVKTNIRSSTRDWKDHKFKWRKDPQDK
T3 sequence (Q9P1W8 29-360 limits assumed): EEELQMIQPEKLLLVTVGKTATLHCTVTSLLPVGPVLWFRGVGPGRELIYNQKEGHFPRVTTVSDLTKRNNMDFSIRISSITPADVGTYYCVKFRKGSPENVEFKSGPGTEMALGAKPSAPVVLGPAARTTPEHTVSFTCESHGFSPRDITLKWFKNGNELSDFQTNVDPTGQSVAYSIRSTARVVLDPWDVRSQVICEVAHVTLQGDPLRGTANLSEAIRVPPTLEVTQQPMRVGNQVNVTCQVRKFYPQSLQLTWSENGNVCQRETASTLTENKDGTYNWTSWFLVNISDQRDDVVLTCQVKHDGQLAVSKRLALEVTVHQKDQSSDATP
T5 sequence (P12314 16-374): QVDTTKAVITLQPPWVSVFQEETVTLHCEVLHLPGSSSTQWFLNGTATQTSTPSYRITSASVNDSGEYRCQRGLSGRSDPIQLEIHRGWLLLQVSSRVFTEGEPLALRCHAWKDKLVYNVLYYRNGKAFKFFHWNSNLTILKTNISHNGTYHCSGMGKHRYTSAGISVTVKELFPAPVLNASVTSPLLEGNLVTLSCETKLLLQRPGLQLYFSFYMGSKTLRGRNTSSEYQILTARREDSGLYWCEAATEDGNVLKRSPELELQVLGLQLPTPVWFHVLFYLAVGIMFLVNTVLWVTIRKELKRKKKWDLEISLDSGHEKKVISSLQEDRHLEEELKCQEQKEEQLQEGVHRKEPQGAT

B1: … ANTIBODY (SIRPα reference antibody with light chain SEQ ID NO:224 and heavy chain SEQ ID NO:225) (antibody, human IgG1, kappa, V domains shown)
VH: EVQLQQSGAELVKPGASVKLSCTASGFNIKDYYIHWVQQRTEQGLEWIGRIDPEDGETKYAPKFQDKATITADTSSNTAYLHLSSLTSEDTAVYYCARWGAYWGQGTLVTVSA
VL: QIVLTQSPAIMSASPGEKVTLTCSASSSVSSSYLYWYQQKPGSSPKLWIYSTSNLASGVPARFSGSGSGTSYSLTISSMEAEDAASYFCHQWSSYPRTFGAGTKLELKR
B1: the figures for the dissociation constant Kd in [1], in assay [2] and in assay [3] were 3.65 nM, 2.98 nM and 1.47 nM, respectively.

B2: mCD47-hFc (Fc fusion, mouse, UniProt Q61735 19-140, looked up, not shown: a dimerising Fc or GST)
chain: QLLFSNVNSIEFTSCNETVVIPCIVRNVEAQSTEEMFVKWKLNKSYIFIYDGNKNSTTTDQNFTSAKISVSDLINGIASLKMDKRDAMVGNYTCEVTELSREGKTVIELKNRTVSWFSPNEK
notes: also called recombinant mouse CD47
In the assay with mouse SIRPα on cells [4], B2 registered an EC50 of 6.7 nM.

B3: SIRPAB-11-4PE (antibody, human IgG4 S228P, kappa)
light: DIQMTQSPSSVSASVGDRVTITCRASQGISSWLAWYQQKPGKAPKLLIYAASNLQSGVPSRFSGSGSGTDFTLTISSLQPEDFATYYCQQGASFPITFGGGTKVEIKRTVAAPSVFIFPPSDEQLKSGTASVVCLLNNFYPREAKVQWKVDNALQSGNSQESVTEQDSKDSTYSLSSTLTLSKADYEKHKVYACEVTHQGLSSPVTKSFNRGEC
heavy: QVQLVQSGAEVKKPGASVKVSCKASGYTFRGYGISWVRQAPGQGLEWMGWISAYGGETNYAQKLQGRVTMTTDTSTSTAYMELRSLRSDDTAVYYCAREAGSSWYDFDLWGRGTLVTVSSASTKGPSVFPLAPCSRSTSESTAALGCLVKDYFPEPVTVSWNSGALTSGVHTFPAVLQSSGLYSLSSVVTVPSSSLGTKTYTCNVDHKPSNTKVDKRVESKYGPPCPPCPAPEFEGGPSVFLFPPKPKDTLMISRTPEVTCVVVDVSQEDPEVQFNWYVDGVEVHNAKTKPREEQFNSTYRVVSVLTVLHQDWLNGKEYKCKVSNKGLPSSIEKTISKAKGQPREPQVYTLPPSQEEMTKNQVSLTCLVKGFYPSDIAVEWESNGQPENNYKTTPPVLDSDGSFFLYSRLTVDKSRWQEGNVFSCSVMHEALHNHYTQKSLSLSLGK
notes: human IgG4 with S228P and L235E; also called SIRPAB-11-IgG4PE; SIRPAB-11-IgG4PE-AF647
Regarding B3, the EC50 in the assay with FcγR1 (CD64) is 756 nM; with FcγR2B it was 5180 nM; with FcγR3A (CD16aV158), 2060 nM; in assay [5] it was 0.426 nM; in assay [6], 0.39 nM; in assay [7] it was 0.43 nM.

B4: SIRPAB-21 with mouse IgG2a (antibody, V domains shown)
VH: QVQLQESGPGLVKPSQTLSLTCTVSGGSISSGGYYWSWIRQHPGKGLEWIGAIYYSGPIYYNPSLKSRVTISVDTSKNQFSLKLSSVTAADTAVYYCSKEGYHSGMDVWGQGTTVTVSS
VL: DIQMTQSPSSLSASVGDRVTITCQASDDISDYLNWYQQKPGKAPKLLIYDASNLETGVPSRFSGSGSGTDFTFTISSLQPEDIATYYCQQFAYLPWTFGGGTKVEIK
As for B4, in the assay with mouse SIRPα on cells [8], the concentration for a half-maximal effect (EC50 (read off the curve)) was about 0.3 nM. Also, the “percent of mCD47 binding blocked” value with mouse SIRPα on cells [9] was over 90%.

The values are drawn from US20200102387A1 (CELGENE, published 2020).
